Target: LgBiT-Npc1l1 expressed on OVA-Panc-02 cells (UniProt Q6T3U4 21-1333)
Experiment: split reporter

Chain of LgBiT-Npc1l1 expressed on OVA-Panc-02 cells (Q6T3U4 21-1333): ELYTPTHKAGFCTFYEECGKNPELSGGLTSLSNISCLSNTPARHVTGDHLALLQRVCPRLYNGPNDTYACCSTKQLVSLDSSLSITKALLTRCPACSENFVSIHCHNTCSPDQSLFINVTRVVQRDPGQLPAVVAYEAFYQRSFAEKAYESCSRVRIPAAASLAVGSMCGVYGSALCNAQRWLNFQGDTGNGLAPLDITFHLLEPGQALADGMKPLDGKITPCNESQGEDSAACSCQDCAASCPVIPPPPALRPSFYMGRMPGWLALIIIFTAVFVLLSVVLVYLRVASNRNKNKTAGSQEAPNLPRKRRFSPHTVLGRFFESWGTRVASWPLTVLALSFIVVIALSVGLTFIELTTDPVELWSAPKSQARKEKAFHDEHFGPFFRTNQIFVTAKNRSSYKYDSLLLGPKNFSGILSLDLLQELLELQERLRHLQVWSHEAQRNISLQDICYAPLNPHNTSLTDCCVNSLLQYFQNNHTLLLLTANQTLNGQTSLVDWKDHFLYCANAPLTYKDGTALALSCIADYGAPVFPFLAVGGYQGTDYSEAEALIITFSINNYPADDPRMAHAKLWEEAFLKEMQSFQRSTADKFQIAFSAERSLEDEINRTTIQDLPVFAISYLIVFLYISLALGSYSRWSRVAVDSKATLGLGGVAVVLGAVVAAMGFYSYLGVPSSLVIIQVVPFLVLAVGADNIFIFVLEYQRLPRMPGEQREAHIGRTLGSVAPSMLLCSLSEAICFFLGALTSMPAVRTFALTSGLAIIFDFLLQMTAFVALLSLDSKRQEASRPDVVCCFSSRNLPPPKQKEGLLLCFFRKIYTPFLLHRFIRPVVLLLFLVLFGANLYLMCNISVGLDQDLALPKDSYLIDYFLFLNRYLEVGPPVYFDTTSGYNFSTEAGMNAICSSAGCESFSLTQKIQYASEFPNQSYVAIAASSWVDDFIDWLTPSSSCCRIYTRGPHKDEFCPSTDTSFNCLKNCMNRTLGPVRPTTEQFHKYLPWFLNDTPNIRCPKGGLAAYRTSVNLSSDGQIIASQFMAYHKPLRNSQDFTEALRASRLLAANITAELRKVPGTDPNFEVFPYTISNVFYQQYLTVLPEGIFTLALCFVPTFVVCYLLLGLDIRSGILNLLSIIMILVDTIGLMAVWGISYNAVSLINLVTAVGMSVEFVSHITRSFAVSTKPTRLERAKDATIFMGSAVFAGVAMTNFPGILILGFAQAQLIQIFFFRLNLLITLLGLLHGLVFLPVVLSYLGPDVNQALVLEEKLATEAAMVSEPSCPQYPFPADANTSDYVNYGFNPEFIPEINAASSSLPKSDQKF

fold luminescence over the NanoBiT negative controls: 1000 fold
B1: SmBiT-Itgal (receptor)
chain: YNLDTRPTQSFLAQAGRHFGYQVLQIEDGVVVGAPGEGDNTGGLYHCRTSSEFCQPVSLHGSNHTSKYLGMTLATDAAKGSLLACDPGLSRTCDQNTYLSGLCYLFPQSLEGPMLQNRPAYQECMKGKVDLVFLFDGSQSLDRKDFEKILEFMKDVMRKLSNTSYQFAAVQFSTDCRTEFTFLDYVKQNKNPDVLLGSVQPMFLLTNTFRAINYVVAHVFKEESGARPDATKVLVIITDGEASDKGNISAAHDITRYIIGIGKHFVSVQKQKTLHIFASEPVEEFVKILDTFEKLKDLFTDLQRRIYAIEGTNRQDLTSFNMELSSSGISADLSKGHAVVGAVGAKDWAGGFLDLREDLQGATFVGQEPLTSDVRGGYLGYTVAWMTSRSSRPLLAAGAPRYQHVGQVLLFQAPEAGGRWNQTQKIEGTQIGSYFGGELCSVDLDQDGEAELLLIGAPLFFGEQRGGRVFTYQRRQSLFEMVSELQGDPGYPLGRFGAAITALTDINGDRLTDVAVGAPLEEQGAVYIFNGKPGGLSPQPSQRIQGAQVFPGIRWFGRSIHGVKDLGGDRLADVVVGAEGRVVVLSSRPVVDVVTELSFSPEEIPVHEVECSYSAREEQKHGVKLKACFRIKPLTPQFQGRLLANLSYTLQLDGHRMRSRGLFPDGSHELSGNTSITPDKSCLDFHFHFPICIQDLISPINVSLNFSLLEEEGTPRDQKVGRAMQPILRPSIHTVTKEIPFEKNCGEDKKCEANLTLSSPARSGPLRLMSSASLAVEWTLSNSGEDAYWVRLDLDFPRGLSFRKVEMLQPHSRMPVSCEELTEGSSLLTKTLKCNVSSPIFKAGQEVSLQVMFNTLLNSSWEDFVELNGTVHCENENSSLQEDNSAATHIPVLYPVNILTKEQENSTLYISFTPKGPKTQQVQHVYQVRIQPSAYDHNMPTLEALVGVPWPHSEDPITYTWSVQTDPLVTCHSEDLKRPSSEAEQPCLPGVQFRCPIVFRREILIQVTGTVELSKEIKASSTLSLCSSLSVSFNSSKHFHLYGSKASEAQVLVKVDLIHEKEMLHVYVLSGIGGLVLLFLIFLALYKVGFFKRNLKEKMEADGGVPNGSPPEDTDPLAVPGEETKDMGCLEPLRESDKD
